Experimental data taken from patent publication US7303752B2, “Hookworm vaccine” (The George Washington University, priority 2001, dated 2007).

B1: Na-ASP-1: Necator americanus secreted protein antigen, SEQ ID NO: 2; Pichia-expressed recombinant (protein, listed as Necator americanus)
chain: MFSPVVVSVVFTIAFCNASPARDSFGCSNSGITDSDRQAFLDFHNNARRRVAKGLEDSNSGKLNPAKNMYKLSWDCAMEQQLQDAIQSCPSGFAGIQGVAQNTMSWSSSGGYPDPSVKIEPTLSGWWSGAKKNGVGPDNKYTGGGLFAFSNMVYSETTKLGCAYKVCGTKLAVSCIYNGVGYITNQPMWETGQACQTGADCSTYKNSGCEDGLCTKGPDVPETNQQCPSNTGMTDSVRDTFLSVHNEFRSSVARGLEPDALGGNAPKAAKMLKMVYDCEVEASAIRHGNKCVYQHSHGEDRPGLGENIYKTSVLKFDKNKAAKQASQLWWNELKEYGVGPSNVLTTALWNRPNMQIGHYTQMAWDTTYKLGCAVVFCNDFTFGVCQYGPGGNYMGHVIYTMGQPCSQCSPGATCSVTEGLCSAP
B2: Ac-AP: A. caninum factor Xa inhibitor anticoagulant, SEQ ID NO: 54; * marks the single dog with positive immune response (protein, listed as Ancylostoma caninum)
chain: KAYPECGENEWLDDCGTQKPCEAKCNEEPPEEEDPICRSRGCLLPPACVCKDGFYRDTVIGDCVREEECDQHEIIHV

Key:
CD-4+lymphocytes = assay: Intracellular cytokine staining of antigen-stimulated CD4+ lymphocytes of hookworm-infected residents; type: cell-based, human; conditions: CD4+ lymphocytes from whole blood of hookworm infected residents
Procedure: The underlying immunological mechanisms accounting for this observation has been investigated. Shown in FIGS. 40 and 41, CD-4+lymphocytes were gated from the whole blood of hookworm infected residents and stimulated with either L3 soluble hookworm antigen FIG. 40) or Pichia-expressed recombinant Na-ASP-1 (FIG. 41). Host cytokine production was measured by an intracellular cytokine staining technique. […] IL-10 is a strong immunomodulator with downregulatory, anti-inflammatory properties, and IL-4 is associated with antibody production and TH-2 type immunity.

A. caninum = assay: Canine vaccine trial with Ac-TMP, Ac-AP, Ac-APR-1, oral challenge with 400 A. caninum L3; type: in vivo, dog
From the text: Study dogs and animal husbandry: Following protocol approval by The George Washington University Institutional Animal Care and Use Committee (IACUC), purpose bred, parasite naïve, male beagles 8±1 week of age were purchased, identified by ear tattoo, and maintained in the AALAC (Association for Assessment and Accreditation of Laboratory Animal Care) accredited George Washington University Animal Research Facility. The dogs were housed in a room dedicated for the study, at a room temperature of 70±4° F., with 10-15 air changes per hour comprised of 100 percent fresh air, and 12 hr light cycles alternating with 12 hr dark cycles. The airflow and timer functions were monitored daily. The dogs were fed on a diet of Teklad Certified Dog Chow #8727, supplemented with a canned soft diet in the event of anorexia. The drinking water was piped from a filter plant and delivered via automatc water system; water analysis was performed by the U.S. Army Corps of Engineers. Water from the facilities automatic system is cultured for bacteria and fungi annually. The pens were flushed daily and sanitized every two weeks. Dogs within a given study group were permitted to live together and socialize prior to the hookworm larval challenge, but were caged individually post-infection. All dogs were quarantined for approximately one week before beginning the vaccine trial. Prior to vaccination a complete blood count (CBC), serum chemistries, and a pre-vaccination serum sample were obtained.
Vaccine study design and sample size: The vaccine trial was designed to test three different antigens, each formulated with alum, as well as an alum adjuvant control. A total of 24 dogs were randomly assigned into four groups comprised of 6 dogs each. The canine sample size was selected on the ability to detect a 40-50 percent reduction in the numbers of adult hookworms in the small intestines of the vaccinated group relative to control dogs, at a statistical power of 80 percent (alpha=0.05, two-tailed). The data were derived from the mean and standard deviation of adult hookworms previously recovered from age-matched dogs infected with 400 A. caninum L3 (Hotez et al, 2002).
Recombinant Antigens: Each group of 6 dogs was vaccinated with recombinant hookworm proteins expressed as fusion proteins either in Escherichia coli or in an insect cell line with baculovirus. Ac-AP (Cappello et al, 1995; 1996) and Ac-TMP, were expressed in E. coli as pET 28 (Novagen) fusion proteins containing a polyhistidine tag (Cappello et al, 1996). Ac-APR-1 (Harrop et al, 1996) was expressed in a baculovirus pBacPAK6 vector (Clontech), modified to contain a polyhistidine-encoding sequence and additional restriction enzyme sites (Brindley et al, 2001). Recombinant Ac-AP and Ac-TMP fusion proteins were then purified by nickel affinity chromatography, followed by a second step of purification. In the case of Ac-AP (Cappello et al, 1995; 1996), the recombinant protein was purified by mono-S (Amersham-Pharmacia) ion exchange chromatography, while Ac-TMP (Zhan et al, 2002) was purified by superdex 75 (Amersham-Pharmacia) gel filtration chromatography. Ac-APR-1 (Harrop et al, 1996) was purified by substrate affinity chromatography using pepstatin agarose (Brindley et al, 2001). The antigen stock protein concentration was determined by Pierce Micro BCA assay (Pierce Chemicals) or by the absorbance of the sample at […] using an extinction coefficient that was calculated from the deduced amino acid composition of the fusion protein. The amount of alum adsorbed protein in each dose of antigen was measured by the Pierce Micro BCA assay using a bovine serum albumin standard. The relative purity of each of the antigens relative to contaminating E. coli or insect cell proteins was determined by analysis on sodium dodecyl sulfate polyacrylamide gel electrophoresis (SDS-PAGE). […]

[1] = tested on: antigen-specific canine IgG1 antibodies; assay: ELISA of antigen-specific canine IgG1, trial with Ac-TMP, Ac-AP, Ac-APR-1; type: in vivo, dog; conditions: five of the six vaccinated dogs
Procedure: Canine Immunizations: A four-dose immunization schedule was selected (Table II). Each of the dogs was vaccinated by subcutaneous immunization at two sites in the shoulder, through a 22 gauge needle. The volume of the injections ranged between 0.5 and 1.0 ml. Four doses of each antigen were administered over a 38-day period. The first two injections (primary immunization) were administered on days 1 and 4, and the final two immunizations (boosts) were administered on days 34 and 38. Dogs in the control group were injected with an equivalent amount of alum.
Canine antibody measurements: Blood was collected weekly by venipuncture and the serum was separated and stored frozen at −20° C. Antigen-specific canine IgG1 antibodies were measured by indirect enzyme-linked immunosorbent assay (ELISA). Other IgG subclasses were not measured due to the unavailability of suitable high-quality canine-specific reagents. The optimal concentrations of sample sera and enzyme-linked detection antibody were determined by checkerboard titrations. Optimal antigen concentrations were determined by using a saturation technique. […] The plates were incubated in the dark for 30 minutes and read at a wavelength of 405 nm on a SpectraMax 240 PC reader (Molecular Devices, Sunnyvale, Calif.) with SOFTmax Pro software (Molecular Devices, Sunnyvale, Calif.). […]

[2] = single dog with positive immune response

Molecule | host cytokine production (CD-4+lymphocytes) | % Decrease of adult hookworms in the small intestines relative to alum-injected dogs (A. caninum; group) [%] | % Increase of adult hookworms in the colons relative to alum-injected dogs (A. caninum; group) [%] | adult A. caninum hookworms in the colons, Median (A. caninum; group median, alum control 4) | adult hookworms in the small intestines, Median (A. caninum; group median, alum control 180) | small intestine to colon hookworm burden ratio (A. caninum; single dog with anti-Ac-AP antibody response) | % Decrease of adult hookworms in the small intestine relative to alum-injected dogs (A. caninum; [2]) [%] | % Increase of adult hookworms in the colon relative to alum-injected dogs (A. caninum; [2]) [%] | adult A. caninum hookworms in the colon, Mean (A. caninum; [2]) | adult A. caninum hookworms in the colon, Median (A. caninum; [2]) | adult hookworms in the small intestine, Mean (A. caninum; [2]) | adult hookworms in the small intestine, Median (A. caninum; [2]) | immunological response to the antigen [1]
B1 | high levels of IL-10 and IL-5, but not IL-4 | – | – | – | – | – | – | – | – | – | – | – | –
B2 | – | 4.5 | 183 | 14 | 170 | 1.6 | 34.7 | 1083 | 71 | 71 | 115 | 115 | failed to respond immunologically
